Reference: patent US20160040149A1, “Compositions Having Dicamba Decarboxylase Activity and Methods of Use” (priority 2013, published 2016)

B1: 33 (protein, listed as Rhizobium leguminosarum)
chain: MAQGKIALEEHFAIPETLQDSAGFVPGDYWKELSARLLDIQEKRLRLMDAHGIEKMILSLNAPAVQAIPDRAKALEISRRANDFLAEQCVKNPNRFLGFAALPLQDPDAATQELQRCVTTMGFVGALVNGFSQEGDGTTPLYYDLPQYRSFWAEVEKLNVPFYLHPRNPLPQDSRIYAGHSWLMGPTWAFAQETAVHALRLMGSGLFDEHPALRIIVGHMGEGLPYMMWRIDNRNAWVKVEKSYPAKRPIADYFNENFYITTSGNFRTQSLIDAMLEIGADRILFSADWPFENIDHAANWFDSATISEADRLKIGRTNAVSLFKLDR
B2: 43 (protein, listed as Rhizobium leguminosarum)
chain: MAQGKIALEEHFAIPETLQDSAGFVPGDYWTELSARLLDIQDKRLRLMDTHGIEKMILSLNAPAVQAIPDKAKAVEISRRANDFLAEQCVKNPNRFLGFAALPLQDPDAATQELQRCVTTMGFVGALVNGFSQEGDGTTPLYYDLPQYRPFWAEVEKLDVPFYLHPRNPLPQDSRIYAGHSWLMGPTWAFAQETAVHALRLMGSGLFDEHPALRIIVGHMGEGLPYMMWRIDNRNAWVKVEKSYPAKRPIADYFNENFYITTSGNFRTQSLIDAMLEIGADRILFSADWPFENVDHAANWFDSATISEADRLKIGRTNAVSLFKLDR
B3: 37 (protein, listed as Burkholderia gladioli)
chain: MATFSNVKKIALEEHFAIAETIEDSAGFVPPDDWVELRGRLLDIQERRLAEMDRAGIELMVLSLNAPAVQAIRDPRQAVELARRANDYLAEQVARRPDRFRAFAALPMQAPEQAIREAERCVRELGFVGALVNGFSEAEDGAELYYDLPRYRPFWAALEALEVPFYLHPRNPLAGRAPIYDGHSWLMGPTWAFGQETAVHALRLMGSGLFDAHPRLQIILGHMGEGLPYSMWRVDNRNAWVSAKPNYPAEKPIAEYFRNNFWLTTSGNFRTQTLIDAMLEIGSDRILFSADWPFENMDHAADWFDHASISENDRIKIGRGNAERLLKLGR
B4: 34 (protein)
chain: MAQGKIGLEEHFAIPETLNDSAGFVPGDYWKELSRRLLDIQDDRLRQMDENGMEMMLLSLNAPAVQAVPDRKQACELAVRANDFLAEQVSRRPDRFQALAALPLQDPDFATVELTRCVNELGMRGALVNGFSQIDTPDNVVYYDAPQYASFWAAVEKLDVPFYLHPRNPIASWAQIYDGHPWLLGPTWAFGQETAVHALRLMASGLFDRHPALQIVLGHLGEGLPYSLWRIDNRNAWVKAPKTHPAKKTFRHYFQQNFHLTTSGNFHNQTLIDAILEIGADRILFSTDWPFENIDHAAKWFDSASISEADRTKIGRTNAMKLFKLVA
modifications: Cupriavidus necator
B5: 44 (protein, listed as Mycobacterium avium)
chain: MARIITVEEHFQHPEVSARVAELTGPAVEGLAEFGNAFSLDPDSTARLGGNRLAHMDQVGIDVQVVSHGNGSPGTLQHPEAVELCRRVNNDLAAQIAENPDRFRGFATLPLYDPAAAAEELRRCVGDLGFVGALIAGSYDGLFLDDERFDPILTAAEAVDFPIYVHPGLPEAPVSQRYYAGSWPASVHMMFSGPAFGWHAEAGIHIVRLILSGALDRHPTLKLLSGHWGELAAFYLERLDETLGLLPTGLERAPSDYYRQQVWITPSGMYNQNQLNFMTAELGAQRIIYSEDFPYVVRDNVSTFLEQAGLSEADTHAIAHTNAEALLRI
B6: 27 (protein, listed as Aspergillus oryzae)
chain: MALGKIALEEAFALPRFEEKTRWWASLFSTDAETHVKEITDINKIRIEHADKHGVGYQILSYTAPGVQDIWDPVEAQALAVEINDYIAEQVRVNPDRFGAFATLSMHNPKEAADELRRCVEKYGFKGALVNDTQRAGPDGDDMIFYDNADWDIFWQTCTELDVPFYMHPRNPTGTIYEKLWADRKWLVGPPLSFAHGVSLHVLGMVTNGVFDRHPKLQIIMGHLGEHVPFDMWRINHWFEDRKKLLGLAETCKKTIRDYFAENIWITTSGHFSTTTLNFCMAEVGSDRILFSIDYPFETFSDACEWFDNAELNGTDRLKIGRENAKKLFKLDSYKDSSA
B7: 29 (protein, listed as Pseudovibrio sp.)
chain: MAGRRDFLRKSVAAGVGLTAAAQLSAGGAQATVPDTSNIPLITLEEHFTTPELQSKNTSGDKRLFSGGGSRPELLDVGAGRIADMDEAGIDIQVLSTVTPGASKITGAEGVEFTRKFNTWIAEEVIAAYPNRFRAFATLPLSSPEAAADELERSVREYGFVGTMTYGPIDGKFLDHADYAPLLARAEALGVPIYIHPNWPSPTAMQAYYDGLGDDLTSRILSGPGYGWHQEIAVQCLRLIVGGVFDRFPNLQIVVGHMGEGLPFYYWRVGEDLDRIAQKRLQKPVQQYFHDNLWITTSAFFRDELLNLALATMGEDRVMFSVDYPMASAKVGADWLRAADIPLATKEKIGSKNAMKLLGIDKI
B8: 31 (protein, listed as Agrobacterium sp.)
chain: MAQGKVALEEHFAIPETLQDSAGFVPGDYWKELQHRLLDIQDTRLKLMDAHGIETMILSLNAPAVQAIPDKTKAIEIARRANDVLAEECAKRPDRFLAFAALPLQDPDAATEELQRCVNDLGFVGALVNGFSQEGDGQTPLYYDLPQYRPFWGEVEKLDVPFYLHPRNPLPQDSRIYDGHPWLLGPTWAFAQETAVHALRLMASGLFDEHPRLNIILGHMGEGLPYMMWRIDHRNAWVKLPPRYPAKRRFMDYFNENFHITTSGNFRTQTLIDAILEIGADRILFSTDWPFENIDHASDWFNATSIAEADRVKIGRTNARRLFKLDGA
B9: 39 (protein, listed as Agrobacterium fabrum)
chain: MAQGKVALEEHFAIPETLQDSAGFVPGDCWTELQHRLLDIQDTRLKLMDAHGIETMILSLNAPAVQAIPDKTKAIEIARRANDALAEECAKRPDRFLAFAALPLQDPDAATQELRRCVNDLGFVGALVNGFSQEGDGQTPLYYDLPQYRPFWGEVEKLDVPFYLHPRNPLPQDSRIYDGHPWLLGPTWAFAQETAVHALRLMASGLFDEHPRLDIILGHMGEGLPYMMWRIDHRNAWVKLPPRYPAKRRFVDYFNENFHITTSGNFRTQTLIDAILEIGADRILFSTDWPFENIDHASDWFHATSIAEADRVKIGRTNARRLFKLDGR
B10: 36 (protein, listed as Agrobacterium sp.)
chain: MAQGKVALEEHFAIPETLQDSAGFVPGDYWTELQHRLLDIQDTRLKLMDAHGIETMILSLNAPAVQAIPDKTKAIEIARRANDALAEECAKRPNRFLAFAALPLQDPDAATQELQRCVNDLGFVGALVNGFSQEGDGQIPLYYDLPQYRPFWGEVEKLDVPFYLHPRNPLPQDSRIYDGHPWLLGPTWAFAQETAVHALRLMASGLFDEHPRLNIILGHMGEGLPYMMWRIDHRNAWVKLPPRYPAKRRFVDYFNENFHITTSGNFRTQTLIDAILEIGADRILFSTDWPFENIDHASDWFHATSIAEADRVKIGRTNARRLFKLDGR
B11: 40 (protein, listed as Rhodococcus jostii)
chain: MAQGKIALEEHFAIPETLNDSAGFVPGTYWDELQARLLDIQDVRLKLMDEHNIETMILSLNAPAVQAIPERERAIDIARRANDVLAEECAKRPDRFRGFAALPLQDPDAAAEELRRCVTELGFVGALVNGFSQSATVDGGSTPLYYDLPRYRPFWAEVERLDVPFYLHPRNPLNQDARIYEGHPWLLGPTWAFAQETAVHALRLMASGLFDEHPGLRIVLGHMGEGIPAMLWRIDHRNAWVDVPPAYPAKRRMVDYFTENFFVTTSGNFRTQTLIDLLLELGSERVMFSTDWPFENINHAAEWFDAASISEADRLKIGRTNAATLFKLDR
B12: 42 (protein)
chain: MAQGKIALEEHFAIPDTLQDSAGFVPGDYWKELSARLLDIHEQRLMQMDAYGIEKMILSLNAPAVQAIPDKAKALEISRRANDFLAEQCARNPDRFLGFAALPLQDPDAATAELQRCVKTLGFVGALVNGFSQEGDGVTPLYYDLPQYRGFWAEVEKLAVPFYLHPRNPLPQDSRIYAGHPWLMGPTWAFAQETAVHALRLVGSGLFDDHPALRIILGHMGEGLPYMMWRIDNRNAWVKVAPNYPAKRRIADYFNENFYITTSGNFRTQSLVDAMLEIGADRILFSTDWPFENIDHASDWFDTATISEADRLKIGRTNAATLFNLES
modifications: Agrobacterium radiobacter
B13: 35 (protein)
chain: MAFKASRKIALEEHFAIDATVQDSAGFVPPSYWAELKRRLLDIHDRRIDEMDRNGVELMVLSLNAPTVQAVPNIKDAYDLSRRANDFLAEQIVKRPERFKGFAALPMQSPDLAARELERCVKELNFVGALVNGFSQVEESGTALYYDLPQYRQFWSVVQALDVPFYLHPRNPLPAHAPIYEGHPWLLGPTWAFGQETAVHALRLMGSGLFDEYPELKIILGHMGEGLPYSMWRIDNRNAWVETQPNYPAKKRIAEYFHKNFWLTTSGNFRTQTLIDAMLEIGSDRILFSTDWPFENVDHAAQWFDDAAISENDRIKIARTNAARLFKLEP
modifications: Burkholderia sp
B14: 38 (protein, listed as Variovorax paradoxus)
chain: MAQGKIGLEEHFAIPQTLQDSAGFVPGVYWKELSSRLLDIHDGRLRQMDEHGMEMMILSLNAPAVQAVADPVKAYELAVRANDFLAEQVAKRPDRFQAFAALPMQDPEKATQELERCMSVLGFRGALVNGFSQVGTPDNVAYYDAPQYAPFWAAAERLDAPFYLHPRNPIASWAQIYEGHPWLLGPTWAFAQETAVHALRLMASGLFDRHPGLKIILGHLGEGLPYNMWRVDHRNAWVKAPKGYPAKRKLCEYFQENFYLTTSGNFRTQTLIDAMLEVGSDRILFSTDWPFENIDHASNWFNDTSISEADRKKIGRTNAMSLFKLA
B15: 28 (protein, listed as Sphingomonas paucimobilis)
chain: MARLIATEEAVTFQPVVDALRAHSRTDDASLDMILVRDVYGDEPARPAMIGRLSDVTGERLAEMDSNGVDMHLLSLTAPGVQMFDAETGTRLARIANDLMAQTVAANPTRFAGLGTFAPQDPASAAREIERVATQLRLNGLVINSHTNDLYYDDPFFHPVFEAIEASGLALYIHPRAPSKQIDRAFRDYGMNSAIWGYGIETSTNAVRMILSGLFDRFPRLKIVLGHMGEAIPFWLWRLDYMHGNATTFGGAPKLKLKPSEYFRRNFAITTSGVESHAALRYSIEVLGPENVMWAIDYPYQPMAPAVQFIRTAPIPEDVKAMVAGGNAARIFRIT
B16: 30 (protein)
chain: MARGKIALEEHVSTPENNRLWDSTGEANRNGSEYMQDVERRLLDRSIQLEEMAQRNIDHVILSLTSPGAQSILDKAKAVSFARDTNDFIVDNYVKPNPDKFSAFATLALQNPEAAAEELERAVKKLGMKGALINGYTNVKDSEHGLYLDDESMLVFWDKVNELNVPVYLHPREPLEGPARGIYTGYESLIGSAWGFAQETAVHAIRLMMSGLFDRYPNLNLVLGHLGEGLVHMLPRTQHRLYRQRFGCGLGKAEKPLMHYLQNNFIVTTSGHFNTHSLNNAIEVMGADRVMFSVDYPYEDIHQACDWFDPLEMDEGLKEKIAWGNASRVFNIK
modifications: Enterobacter aerogenes

Test: Saturation mutagenesis of SEQ ID NO:109: dicamba decarboxylation activity of point mutants (CO2 released), fold of backbone (Tables 7, 8, Megatable 1)
Conditions: decarboxylation activity (CO2 released) of point mutant vs unmutated backbone protein; backbone SEQ ID NO: 109

Point of comparison: B8, “Fold Activity” value 1.7 fold. Against it:
- B1 — lower, 1.6 fold
- B2 — lower, 1 fold
- B3 — lower, 1.6 fold
- B4 — lower, 1.6 fold
- B5 — lower, 0.7 fold
- B6 — lower, 1 fold
- B7 — lower, 1.5 fold
- B9 — lower, 1.6 fold
- B10 — higher, 2 fold
- B11 — lower, 1.4 fold
- B12 — the same, 1.7 fold
- B13 — higher, 2.2 fold
- B14 — higher, 1.8 fold
- B15 — lower, 1.2 fold
- B16 — higher, 2 fold
